Test results: EP4768505A1 (Shenzhen Genocury Biotech Co., Ltd, dated 2026)
Substitutions are numbered along the chain they refer to.

T1: Mouse CD79B antigen (mouse, UniProt P15530 26-158, limits assumed)
T1 sequence (looked up): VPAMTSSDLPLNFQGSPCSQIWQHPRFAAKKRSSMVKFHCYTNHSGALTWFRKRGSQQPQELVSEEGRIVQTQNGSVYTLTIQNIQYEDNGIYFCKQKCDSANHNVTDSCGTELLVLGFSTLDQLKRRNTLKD

T2: Mouse CD79A+CD79B antigen (mouse) (UniProt P11911)
T2 sequence (looked up) 1: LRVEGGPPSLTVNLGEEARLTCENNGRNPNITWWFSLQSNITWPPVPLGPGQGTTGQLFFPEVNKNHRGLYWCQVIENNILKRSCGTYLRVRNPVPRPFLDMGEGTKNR
T2 sequence (looked up) 2: T1 sequence (looked up)

T3: human CD79B antigen (a full-length protein containing signal peptide, UniProt ID: P40259) on cells (human, UniProt P40259 29-229)
T3 construct: whole, on cells; Used for the flow cytometry on transfected HEK-293T cells; F2A residues left at the C-terminus after cleavage are not described; also called CD79B-GFP molecule; HEK-293T cells overexpressing the CD79B-GFP molecule
T3 sequence (looked up): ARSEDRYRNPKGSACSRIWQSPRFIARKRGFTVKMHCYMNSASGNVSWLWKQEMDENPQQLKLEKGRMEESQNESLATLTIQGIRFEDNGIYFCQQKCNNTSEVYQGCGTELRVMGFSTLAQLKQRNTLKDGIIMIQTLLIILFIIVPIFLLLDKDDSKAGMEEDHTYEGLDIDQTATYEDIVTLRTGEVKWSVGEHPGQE

B1: anti-CD79B single-domain antibody JYB11 (VHH)
VHH: DVQLQESGGGLVQPGGSLSLSCAASMSSPSLWVRAWHRQAPGKQRELVAAINSDGQTMYADSVKGRFTISRDNAKTLVSLQMDSLKPEDTAVYYCNVVTPRGQQYWGQGTQVTVSS
notes: Alpaca VHH from a phage library; ELISA detected with an anti-myc antibody; a myc tag is not described; not shown: His-tag protein at the C-terminal end
B2: anti-CD79B single-domain antibody JYB4 (VHH)
VHH: DVQLQESGGGLVQPGGSLRLSCAASGFAFSLYAMSWARQAPGKGLEWVSDIYGDDDSRRNYADSVKGRFTISRDNAKNTVYLQMTNLQPEDTALYYCGKGRDGTRWSAREYEYRGQGTQVTVSS
notes: Alpaca VHH from a phage library; not shown: His-tag protein at the C-terminal end
B3: anti-CD79B single-domain antibody JYB14 (VHH)
VHH: B1 VHH with S21T, A23T, M26I, P29L, S30T, L31I, L77T, R101N
notes: as for B1
B4: anti-CD79B single-domain antibody JYB10 (VHH)
VHH: B1 VHH with M26I, P29S, L31I, S53N, L77T, D83N, R101K, Q103H
notes: as for B1
B5: anti-CD79B single-domain antibody JYB8 (VHH, not shown: small tags and cut ends)
VHH: B1 VHH with V12M, S21T, A23T, M26I, P29L, L31I, N73S, L77T, R101K

Target: BSA (UniProt P02769)
Assay: ELISA on coated BSA control, anti-myc detection; 200µg [sic] antibody added (lowest step of the dilution series)

Sequence of BSA (P02769 25-607 limits assumed): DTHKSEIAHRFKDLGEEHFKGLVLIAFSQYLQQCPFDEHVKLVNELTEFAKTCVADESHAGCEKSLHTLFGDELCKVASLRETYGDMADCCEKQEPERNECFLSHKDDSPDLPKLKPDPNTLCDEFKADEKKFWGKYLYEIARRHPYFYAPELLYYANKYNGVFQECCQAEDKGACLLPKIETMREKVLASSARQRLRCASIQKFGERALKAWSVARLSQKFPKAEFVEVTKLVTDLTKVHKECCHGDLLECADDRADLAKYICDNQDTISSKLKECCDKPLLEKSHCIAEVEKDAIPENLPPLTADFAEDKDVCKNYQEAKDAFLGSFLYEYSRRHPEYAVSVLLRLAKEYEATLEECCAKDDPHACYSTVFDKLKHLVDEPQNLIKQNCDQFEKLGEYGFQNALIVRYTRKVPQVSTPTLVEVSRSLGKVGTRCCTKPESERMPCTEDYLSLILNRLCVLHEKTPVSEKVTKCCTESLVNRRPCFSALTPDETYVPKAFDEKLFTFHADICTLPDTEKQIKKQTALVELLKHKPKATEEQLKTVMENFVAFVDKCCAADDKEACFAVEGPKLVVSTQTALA

| Binder | OD450 nm [OD450] |
| --- | --- |
| B1 | 0.0469 |

Target: BSA (UniProt P02769)
Assay: ELISA on coated BSA control, anti-myc detection; 2ng antibody added

| Binder | OD450 nm [OD450] |
| --- | --- |
| B2 | 0.0479 |
| B3 | 0.0474 |
| B4 | 0.0486 |
| B1 | 0.0485 |
| B5 | 0.0474 |

Target: BSA (UniProt P02769)
Assay: ELISA on coated BSA control, anti-myc detection; 20ug antibody added

| Binder | OD450 nm [OD450] |
| --- | --- |
| B2 | 0.0488 |
| B3 | 0.0489 |
| B4 | 0.0493 |
| B1 | 0.0489 |
| B5 | 0.0537 |

Target: T1, Mouse CD79B antigen
Assay: ELISA on coated antigen, anti-myc detection

| Binder | binding result |
| --- | --- |
| B2 | no binding (tested: 20ug) |
| B3 | no binding (tested: 20ug) |
| B1 | no binding (tested: 20ug) |

Target: Human CD79A+CD79B antigen (human) (UniProt P11912)
Assay: ELISA on coated antigen, anti-myc detection; 20ng antibody added
Target sequence in this assay (P11912 33-143 limits assumed, chain 1 of 2, one chain of several): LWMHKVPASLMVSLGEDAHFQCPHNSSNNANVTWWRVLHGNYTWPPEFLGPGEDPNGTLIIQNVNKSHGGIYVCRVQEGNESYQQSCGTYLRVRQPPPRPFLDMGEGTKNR

| Binder | OD450 nm [OD450] |
| --- | --- |
| B2 | 0.172 |
| B3 | 0.116 |
| B4 | 0.0687 |
| B1 | 0.0778 |
| B5 | 0.115 |

Target: Human CD79B Protein, His Tag (MALS verified), Cat. No. #CDB-H52H3-1mg, ACRO (human) (UniProt P40259)
Assay: as above

| Binder | OD450 nm [OD450] |
| --- | --- |
| B2 | 0.15 |
| B3 | 0.139 |
| B4 | 0.0739 |
| B1 | 0.0947 |
| B5 | 0.145 |

Target: T2, Mouse CD79A+CD79B antigen (mouse)
Assay: as above

| Binder | OD450 nm [OD450] |
| --- | --- |
| B2 | 0.0572 |
| B3 | 0.0578 |
| B4 | 0.0609 |
| B1 | 0.0575 |
| B5 | 0.0553 |

Target: T1, Mouse CD79B antigen
Assay: as above

| Binder | OD450 nm [OD450] |
| --- | --- |
| B4 | 0.0517 |
| B5 | 0.0551 |

Target: Human CD79A+CD79B antigen (human) (UniProt P11912)
Assay: ELISA on coated antigen, anti-myc detection; 200ng antibody added
Target sequence in this assay (P11912 33-143 limits assumed, chain 1 of 2, one chain of several): as above

| Binder | OD450 nm [OD450] |
| --- | --- |
| B2 | 0.421 |
| B3 | 0.421 |
| B4 | 0.224 |
| B1 | 0.271 |
| B5 | 1.43 |

Target: Human CD79B Protein, His Tag (MALS verified), Cat. No. #CDB-H52H3-1mg, ACRO (human) (UniProt P40259)
Assay: as above

| Binder | OD450 nm [OD450] |
| --- | --- |
| B2 | 0.375 |
| B3 | 0.321 |
| B4 | 0.144 |
| B1 | 0.177 |
| B5 | 0.308 |

Target: T2, Mouse CD79A+CD79B antigen (mouse)
Assay: as above

| Binder | OD450 nm [OD450] |
| --- | --- |
| B2 | 0.0567 |
| B3 | 0.0597 |
| B4 | 0.0601 |
| B1 | 0.0589 |
| B5 | 0.068 |

Target: T1, Mouse CD79B antigen
Assay: as above

| Binder | OD450 nm [OD450] |
| --- | --- |
| B4 | 0.0527 |
| B5 | 0.0622 |

Target: Human CD79A+CD79B antigen (human) (UniProt P11912)
Assay: ELISA on coated antigen, anti-myc detection; 20ug antibody added
Target sequence in this assay (P11912 33-143 limits assumed, chain 1 of 2, one chain of several): as above

| Binder | OD450 nm [OD450] |
| --- | --- |
| B2 | 0.658 |
| B3 | 0.855 |
| B4 | 0.816 |
| B1 | 0.612 |
| B5 | 0.922 |

Target: Human CD79B Protein, His Tag (MALS verified), Cat. No. #CDB-H52H3-1mg, ACRO (human) (UniProt P40259)
Assay: as above

| Binder | OD450 nm [OD450] |
| --- | --- |
| B2 | 0.552 |
| B3 | 0.495 |
| B4 | 0.285 |
| B1 | 0.379 |
| B5 | 0.596 |

Target: T2, Mouse CD79A+CD79B antigen (mouse)
Assay: as above

| Binder | OD450 nm [OD450] |
| --- | --- |
| B2 | 0.049 |
| B3 | 0.117 |
| B4 | 0.126 |
| B1 | 0.0981 |
| B5 | 0.356 |

Target: T1, Mouse CD79B antigen
Assay: as above

| Binder | OD450 nm [OD450] |
| --- | --- |
| B4 | 0.0982 |
| B5 | 0.229 |

Target: T3, human CD79B antigen (a full-length …)
Assay: flow cytometry on HEK-293T cells overexpressing CD79B-GFP, 0.1 mg/mL, APC-His tag antibody

| Binder | binding result |
| --- | --- |
| B2 | binds |
| B3 | binds |
| B4 | binds |
| B1 | binds |

Target: Human CD79A+CD79B antigen (human) (UniProt P11912)
Assay: ELISA on coated antigen, anti-myc detection; 200µg [sic] antibody added (lowest step of the dilution series)
Target sequence in this assay (P11912 33-143 limits assumed): as the sequence (P11912 33-143 limits assumed, chain 1 of 2, one chain of several) above

| Binder | OD450 nm [OD450] |
| --- | --- |
| B1 | 0.0556 |

Target: Human CD79B Protein, His Tag (MALS verified), Cat. No. #CDB-H52H3-1mg, ACRO (human) (UniProt P40259)
Assay: as above

| Binder | OD450 nm [OD450] |
| --- | --- |
| B1 | 0.0516 |

Target: T2, Mouse CD79A+CD79B antigen (mouse)
Assay: as above

| Binder | OD450 nm [OD450] |
| --- | --- |
| B1 | 0.0586 |

Target: BSA (UniProt P02769)
Assay: ELISA on coated BSA control, anti-myc detection; 2ug antibody added

| Binder | OD450 nm [OD450] |
| --- | --- |
| B2 | 0.0479 |
| B3 | 0.0506 |
| B4 | 0.0482 |
| B1 | 0.0483 |
| B5 | 0.0582 |

Target: Human CD79A+CD79B antigen (human) (UniProt P11912)
Assay: ELISA on coated antigen, anti-myc detection; 200pg antibody added
Target sequence in this assay (P11912 33-143 limits assumed, chain 1 of 2, one chain of several): as above

| Binder | OD450 nm [OD450] |
| --- | --- |
| B2 | 0.0577 |
| B3 | 0.0561 |
| B4 | 0.0573 |
| B5 | 0.0521 |

Target: Human CD79B Protein, His Tag (MALS verified), Cat. No. #CDB-H52H3-1mg, ACRO (human) (UniProt P40259)
Assay: as above

| Binder | OD450 nm [OD450] |
| --- | --- |
| B2 | 0.0521 |
| B3 | 0.0501 |
| B4 | 0.0496 |
| B5 | 0.0418 |

Target: T2, Mouse CD79A+CD79B antigen (mouse)
Assay: as above

| Binder | OD450 nm [OD450] |
| --- | --- |
| B2 | 0.0601 |
| B3 | 0.0609 |
| B4 | 0.0584 |
| B5 | 0.0619 |

Target: T1, Mouse CD79B antigen
Assay: as above

| Binder | OD450 nm [OD450] |
| --- | --- |
| B4 | 0.0517 |
| B5 | 0.0485 |

Target: BSA (UniProt P02769)
Assay: ELISA on coated BSA control, anti-myc detection; 20ng antibody added

| Binder | OD450 nm [OD450] |
| --- | --- |
| B2 | 0.0499 |
| B3 | 0.0476 |
| B4 | 0.0474 |
| B1 | 0.0471 |
| B5 | 0.0554 |

Target: Human CD79A+CD79B antigen (human) (UniProt P11912)
Assay: ELISA on coated antigen, anti-myc detection; 2ng antibody added

| Binder | OD450 nm [OD450] |
| --- | --- |
| B2 | 0.063 |
| B3 | 0.0603 |
| B4 | 0.0596 |
| B1 | 0.0567 |
| B5 | 0.0544 |

Target: Human CD79B Protein, His Tag (MALS verified), Cat. No. #CDB-H52H3-1mg, ACRO (human) (UniProt P40259)
Assay: as above

| Binder | OD450 nm [OD450] |
| --- | --- |
| B2 | 0.0519 |
| B3 | 0.0507 |
| B4 | 0.0517 |
| B1 | 0.0528 |
| B5 | 0.06 |

Target: T2, Mouse CD79A+CD79B antigen (mouse)
Assay: as above

| Binder | OD450 nm [OD450] |
| --- | --- |
| B2 | 0.0574 |
| B3 | 0.0584 |
| B4 | 0.0584 |
| B1 | 0.0582 |
| B5 | 0.0543 |

Target: T1, Mouse CD79B antigen
Assay: as above

| Binder | OD450 nm [OD450] |
| --- | --- |
| B4 | 0.0512 |
| B5 | 0.0512 |

Target: BSA (UniProt P02769)
Assay: ELISA on coated BSA control, anti-myc detection; 200ng antibody added

| Binder | OD450 nm [OD450] |
| --- | --- |
| B2 | 0.049 |
| B3 | 0.0493 |
| B4 | 0.0473 |
| B1 | 0.048 |
| B5 | 0.052 |

Target: Human CD79A+CD79B antigen (human) (UniProt P11912)
Assay: ELISA on coated antigen, anti-myc detection; 2ug antibody added
Target sequence in this assay (P11912 33-143 limits assumed, chain 1 of 2, one chain of several): as above

| Binder | OD450 nm [OD450] |
| --- | --- |
| B2 | 0.585 |
| B3 | 0.634 |
| B4 | 0.554 |
| B1 | 0.519 |
| B5 | 0.802 |

Target: Human CD79B Protein, His Tag (MALS verified), Cat. No. #CDB-H52H3-1mg, ACRO (human) (UniProt P40259)
Assay: as above

| Binder | OD450 nm [OD450] |
| --- | --- |
| B2 | 0.485 |
| B3 | 0.346 |
| B4 | 0.221 |
| B1 | 0.303 |
| B5 | 0.506 |

Target: T2, Mouse CD79A+CD79B antigen (mouse)
Assay: as above

| Binder | OD450 nm [OD450] |
| --- | --- |
| B2 | 0.0549 |
| B3 | 0.0726 |
| B4 | 0.0788 |
| B1 | 0.0651 |
| B5 | 0.206 |

Target: T1, Mouse CD79B antigen
Assay: as above

| Binder | OD450 nm [OD450] |
| --- | --- |
| B4 | 0.0588 |
| B5 | 0.178 |

Target: BSA (UniProt P02769)
Assay: ELISA on coated BSA control, anti-myc detection; 200pg antibody added

| Binder | OD450 nm [OD450] |
| --- | --- |
| B2 | 0.0476 |
| B3 | 0.0489 |
| B4 | 0.0488 |
| B5 | 0.0534 |
